Entries after “also recorded” stand apart in the source; their conditions may differ.
Key:
[1] = system: ANF promoter in HEK 293T cells; test: ANF promoter dual luciferase assay in HEK 293T cells; type: cell-based; conditions: for ANF promoter luciferase expression in the presence of Nkx2.5: Nkx2.5 present
Procedure: (§1) For cell-based experiments, HEK 293T and HeLa cells were cultured at 37 °C and 5% CO2 in DMEM (Lonza) supplemented with 10% fetal bovine serum (FBS) (Invitrogen) and 1% Glutamax (Invitrogen). For microscopy, HeLa cells were seeded into 96-well clear bottom optical grade plates (BD Biosciences) at 8000 cells/well and allowed to settle overnight. Transfections were carried out the next day. For each well, 0.1 μg of plasmid and 0.25 μl of Lipofectamine 2000 (Invitrogen) were each incubated in 25 μl of Opti-MEM (Invitrogen) for 5 min at room temperature. The two solutions were then mixed gently but thoroughly and incubated for 20 min at room temperature. The mixture was added to the cells in 50 μl of fresh medium. Four hours later, the medium was changed, and the cells were incubated for a further 24 h before fixation. Cells were fixed in 4% (v/v) aqueous formaldehyde for 20 min, permeabilized in 0.5% Triton X-100 in phosphate-buffered saline (PBS) for 8 min, and blocked in 3% (w/v) FBS in PBS for 1 h with a PBS wash between each step. The primary antibodies were then added to the cells in blocking solution. After 1 h at room temperature, cells were washed three times in PBS, incubated with secondary antibodies for 1 h, rinsed three times in PBS again, and counterstained with DAPI before imaging. Luciferase activity assays were carried out as described previously ([13], [22], [40]). The atrial natriuretic factor (ANF) promoter-luciferase reporter was a kind gift from Benoit Bruneau ([41]). As for immunofluorescence assays, this construct was co-transfected into HEK 293T cells in the presence of full-length (FL) WT UTY(KDM6C) or H1095 UTY(KDM6C). Luciferase activity was measured using the Promega Dual-Luciferase Reporter Assay System on a Promega GloMax 20/20 luminometer. Readings were normalized to a Renilla luciferase control that was co-transfected with all samples.

[2] = system: H3K27Me3 levels in HeLa cells; test: Immunofluorescence of global H3K27Me3 levels on overexpression in HeLa cells; type: cell-based; conditions: exogenous overexpression in HeLa cells
Procedure: as §1, with “After 1 h at room temperature, cells were washed three times in PBS, incubated with secondary antibodies for 1 h, rinsed three times in PBS again, and counterstained with DAPI before imaging. Luciferase activity assays were carried out as described previously ([13], [22], [40]). The atrial natriuretic factor (ANF) promoter-luciferase reporter was a kind gift from Benoit Bruneau ([41]). As for immunofluorescence assays, this construct was co-transfected into HEK 293T cells in the presence of full-length (FL) WT UTY(KDM6C) or H1095 UTY(KDM6C).” left out, “samples. […]” for “samples.”

Molecule	ANF promoter luciferase expression in the presence of Nkx2.5 ([1]; HEK 293T cells)	change in global H3K27Me3 level [2]	ANF promoter luciferase expression (in words) ([1]; HEK 293T cells, without Nkx2.5, *, p < 0.05 unpaired Student's t test)	increase in ANF promoter-coupled luciferase expression ([1]; overexpression in HEK 293T cells, relative to empty vector control, average of three biological replicates of triplicate transfections)
Nkx2.5: transcription factor (protein, UniProt P52952 1-324, looked up) Homeobox protein Nkx-2.5: MFPSPALTPTPFSVKDILNLEQQQRSLAAAGELSARLEATLAPSSCMLAAFKPEAYAGPEAAAPGLPELRAELGRAPSPAKCASAFPAAPAFYPRAYSDPDPAKDPRAEKKELCALQKAVELEKTEADNAERPRARRRRKPRVLFSQAQVYELERRFKQQRYLSAPERDQLASVLKLTSTQVKIWFQNRRYKCKRQRQDQTLELVGLPPPPPPPARRIAVPVLVRDGKPCLGDSAPYAPAYGVGLNPYGYNAYPAYPGYGGAACSPGYSCTAAYPAGPSPAQPATAAANNNFVNFGVGDLNAVQSPGIPQSNSGVSTLHGIRAW	enhanced expression from the ANF promoter	–	–	–
FL WT UTY(KDM6C): full-length wild type UTY(KDM6C) exogenously expressed in cells (protein, UniProt O14607 1-1347, looked up, full-length, full-length wild type UTY(KDM6C) exogenously expressed in cells) MKSCAVSLTTAAVAFGDEAKKMAEGKASRESEEESVSLTVEEREALGGMDSRLFGFVRLHEDGARTKTLLGKAVRCYESLILKAEGKVESDFFCQLGHFNLLLEDYSKALSAYQRYYSLQADYWKNAAFLYGLGLVYFYYNAFHWAIKAFQDVLYVDPSFCRAKEIHLRLGLMFKVNTDYKSSLKHFQLALIDCNPCTLSNAEIQFHIAHLYETQRKYHSAKEAYEQLLQTENLPAQVKATVLQQLGWMHHNMDLVGDKATKESYAIQYLQKSLEADPNSGQSWYFLGRCYSSIGKVQDAFISYRQSIDKSEASADTWCSIGVLYQQQNQPMDALQAYICAVQLDHGHAAAWMDLGTLYESCNQPQDAIKCYLNAARSKRCSNTSTLAARIKFLQNGSDNWNGGQSLSHHPVQQVYSLCLTPQKLQHLEQLRANRDNLNPAQKHQLEQLESQFVLMQQMRHKEVAQVRTTGIHNGAITDSSLPTNSVSNRQPHGALTRVSSVSQPGVRPACVEKLLSSGAFSAGCIPCGTSKILGSTDTILLGSNCIAGSESNGNVPYLQQNTHTLPHNHTDLNSSTEEPWRKQLSNSAQGLHKSQSSCLSGPNEEQPLFSTGSAQYHQATSTGIKKANEHLTLPSNSVPQGDADSHLSCHTATSGGQQGIMFTKESKPSKNRSLVPETSRHTGDTSNGCADVKGLSNHVHQLIADAVSSPNHGDSPNLLIADNPQLSALLIGKANGNVGTGTCDKVNNIHPAVHTKTDHSVASSPSSAISTATPSPKSTEQRSINSVTSLNSPHSGLHTVNGEGLGKSQSSTKVDLPLASHRSTSQILPSMSVSICPSSTEVLKACRNPGKNGLSNSCILLDKCPPPRPPTSPYPPLPKDKLNPPTPSIYLENKRDAFFPPLHQFCTNPKNPVTVIRGLAGALKLDLGLFSTKTLVEANNEHMVEVRTQLLQPADENWDPTGTKKIWRCESNRSHTTIAKYAQYQASSFQESLREENEKRTQHKDHSDNESTSSENSGRRRKGPFKTIKFGTNIDLSDNKKWKLQLHELTKLPAFARVVSAGNLLTHVGHTILGMNTVQLYMKVPGSRTPGHQENNNFCSVNINIGPGDCEWFVVPEDYWGVLNDFCEKNNLNFLMSSWWPNLEDLYEANVPVYRFIQRPGDLVWINAGTVHWVQAVGWCNNIAWNVGPLTACQYKLAVERYEWNKLKSVKSPVPMVHLSWNMARNIKVSDPKLFEMIKYCLLKILKQYQTLREALVAAGKEVIWHGRTNDEPAHYCSICEVEVFNLLFVTNESNTQKTYIVHCHDCARKTSKSLENFVVLEQYKMEDLIQVYDQFTLALSLSSSS	does not further enhance expression	no detectable decrease; also recorded: no change in H3K27Me3 levels	enhanced expression	5 -fold

Source: publication PMC4140284, “Human UTY(KDM6C) Is a Male-specific N^ϵ-Methyl Lysyl Demethylase” (The Journal of Biological Chemistry, 2014)
